Results reported in patent US6528098B2, “Preparation of a therapeutic composition” (Advanced Viral Research Corp., priority 1996, dated 2003).
No end group written: not given here.

Experiments:
Type in all cases: physicochemical
Set-up in all cases: key: “−” represents no substantial alteration of the stainable bands; “+” represents substantial alteration of the stainable bands
[1] = biological target: T1, trypsin (Bos taurus, UniProt P00760); assay: Treatment of Product R with trypsin, SDS-PAGE on a 16% gel; settings: 250 μg/ml trypsin, 25° C., 19 hours
T1 construct: purchased Boehringer Mannheim USA
T1 sequence (P00760 24-246): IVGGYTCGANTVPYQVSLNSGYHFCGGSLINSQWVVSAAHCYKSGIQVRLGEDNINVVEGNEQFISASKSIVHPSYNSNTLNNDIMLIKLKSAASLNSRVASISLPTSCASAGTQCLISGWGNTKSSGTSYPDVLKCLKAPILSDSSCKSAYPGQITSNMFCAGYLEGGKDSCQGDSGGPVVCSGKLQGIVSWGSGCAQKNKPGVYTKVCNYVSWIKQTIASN
Experimental: (§1) The biochemical properties of the peptides: Some biochemical properties of the silverstainable peptide components of Product R are analyzed using various catabolic enzymes, as described below:
The treatment with trypsin (Boehringer Mannheim USA): Trypsin is a serine protease, which specifically cleaves peptide bonds of lysine and arginine at the C-terminal at pH 7.5-9.0. A Product R sample is incubated in a reaction buffer having 100 mM Tris-HCl, pH 8.0, 0.1% SDS and 250 μg/ml of sequencing grade trypsin at 25° C. for 19 hours and then subject to SDS-PAGE on a 16% gel. While serum proteins will be broken down to peptides smaller than 4.3 KDa under such reaction conditions, none of the silver stained components of Product R are affected by trypsin.
(§2) A summary of the above described treatments by catabolic enzymes is provided in the following TABLE III, and the results of the treatment are shown in FIG. 5, wherein “−” represents no substantial alteration of the stainable bands and “+” represents substantial alteration of the stainable bands.

[2] = system: pronase from S. griseus; assay: Treatment of Product R with pronase, SDS-PAGE on a 16% gel; settings: 2 mg/ml pronase, 40° C., 75 minutes
Experimental: as §1
The treatment with pronase (Boehringer Mannlheim. USA): Pronase is a non-specific protease, acts on both native and denatured proteins. It breaks down virtually all proteins into their individual amino acids. The preparation contains various types of endo-peptidases such as srine and metalloproteases, exo-peptidases such as carboypepsidases, neutral protease and neutral and alkaline phosphatases. A Product R sample is incubated in a reaction buffer containing 100 mM Tris-HCl, pH 7.4; 10 mM CaCl2; 0.1% SDS and 2 mg/ml of pronase from S. griseus at 40° C. for 75 minutes and then subject to SDS-PAGE on a 16% gel. All silver stained components disappear after such treatment of pronase.
as §2

[3] = biological target: T2, bovine pancreatic Ribonuclease A (Bos taurus, UniProt P61823); assay: Treatment of Product R with ribonuclease A, SDS-PAGE on a 16% gel; settings: 37° C., about 1 hour
T2 construct: purchased ICN Biochemicals, USA
T2 sequence (P61823 27-150): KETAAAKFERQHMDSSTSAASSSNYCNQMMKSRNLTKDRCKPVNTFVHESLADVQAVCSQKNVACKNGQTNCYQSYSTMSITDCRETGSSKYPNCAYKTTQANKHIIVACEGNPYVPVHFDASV
Experimental: as §1
The treatment with ribonuclease A (ICN Biochemicals, USA): Ribonuclease A is a pyrimidine specific endoribonuclease that acts on single stranded RNA. A Product R sample is incubated in a reaction buffer containing 10 mM Tris-HCl, pH 7.4, 3 mM MgCl2, and I mg/ml of bovine pancreatic Ribonuclease A at 37° C. for about 1 hour and subject to SDS-PAGE on a 16% gel. […] The resistance to ribonuclease A excludes the possibility of the presence of a RNA fragment attached to the peptide.
as §2

[4] = biological target: T3, recombinant N-glycosidase F (Elizabethkingia miricola, UniProt P21163); assay: Treatment of Product R with N-glycosidase F, SDS-PAGE on a 16% gel; settings: 37° C., 4 hours
T3 construct: purchased Boehringer Mannheim, USA
T3 sequence (P21163 41-354): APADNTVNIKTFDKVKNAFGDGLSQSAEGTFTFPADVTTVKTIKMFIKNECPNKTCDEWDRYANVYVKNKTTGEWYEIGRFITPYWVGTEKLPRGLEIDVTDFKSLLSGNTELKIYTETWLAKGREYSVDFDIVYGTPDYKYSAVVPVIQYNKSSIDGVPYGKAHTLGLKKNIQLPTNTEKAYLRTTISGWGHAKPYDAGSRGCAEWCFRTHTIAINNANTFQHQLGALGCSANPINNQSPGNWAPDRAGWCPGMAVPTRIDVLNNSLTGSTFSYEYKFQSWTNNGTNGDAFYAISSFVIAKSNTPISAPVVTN
Experimental: as §1
The treatment with N-glycosidase F (Boehringer Mannheim, USA): N-glycosidase F cleaves all types of asparagine bound N-glycans provided that the amino group and the carboxyl group are present in a peptide linkage and the oligosaccharide has the minimum length of the chitobiose core unit. A Product R sample is incubated in a reaction buffer containing 0.4X Dulbecco's PBS (where 1X PBS contains 1.47 mM KH2 PO4, 2.67 mM KCl, 138 mM NaCl and 8.1 mM Na2 PO4 7H2O), 0.1% SDS, 0.5% NP40 and 50 units/mil of recombinant N-glycosidase F at 37° C. for 4 hours and subject to SDS-PAGE on a 16% gel. […] The resistance to N-glycosidase F indicates the lack of asparagine bound N-glycan, which is commonly observed in glycoproteins.
as §2

Sequence | Sensitivity of the Peptide Components of Product R (SDS-PAGE): Trypsin (250 μg/ml) [1] | Sensitivity of the Peptide Components of Product R (SDS-PAGE): Pronase (2 mg/ml) [2] | Sensitivity of the Peptide Components of Product R (SDS-PAGE): Ribonuclease A (1 mg/ml) [3] | Sensitivity of the Peptide Components of Product R (SDS-PAGE): N-glycosidase F (50 units/ml) [4]
GEIPDAGGRIVDYYVGFSDSV (not fully specified (residue 18)) [Peptide-B, 21-amino acid peptide linked at serine 18 through a diphosphodiester group to the 3′-end of an adenylyl (3′-5′) adenosine moiety] | − | + | − | −
KVLPVPQKAVPYPQRDMPIQAFLLYQEPVLG [Peptide-A, 31-amino-acid long peptide derived from bovine beta-casein, constituent of Product R] | − | + | − | −
